Results taken from the supplement of paper PMC5998384.

What was measured:
HeLa Kyoto [1] = experiment: solubility change mitosis vs G1/S (difference of NP-40 vs SDS log2 ratios) (log2 ratio difference); higher = more soluble in mitosis
HeLa Kyoto [2] = experiment: thermal stability score vs G1/S (z-score of summed log2 fold changes over temperatures); higher = more thermally stable than in G1/S
HeLa Kyoto [3] = experiment: solubility in G1/S (NP-40 vs SDS abundance) (log2 ratio); higher = more soluble; settings: cell cycle stage: G1/S
HeLa Kyoto [4] = experiment: melting temperature (median over replicates), in situ; higher = more thermally stable
[5] = cell cycle stage: early G1 (4.5 h after nocodazole release)
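Wherever melting temperature (median over replicates), in situ is given: HeLa Kyoto cells synchronized by double thymidine or nocodazole block, proteins quantified by TMT10plex mass spectrometry, three independent biological replicates.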
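Wherever solubility change mitosis vs G1/S (difference of NP-40 vs SDS log2 ratios) is given: synchronized HeLa Kyoto cells (double thymidine block for G1/S, nocodazole release for mitosis), protein amounts in NP-40 versus SDS lysates quantified by mass spectrometry, three biological replicates.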
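Wherever solubility in G1/S (NP-40 vs SDS abundance) is given: HeLa Kyoto cells arrested at G1/S by double thymidine block, proteins quantified by TMT10plex mass spectrometry in mild NP-40 versus SDS extracts, three biological replicates.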
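Wherever thermal stability score vs G1/S (z-score of summed log2 fold changes over temperatures) is given: synchronized HeLa Kyoto cells, proteins quantified by TMT10plex mass spectrometry, three biological replicates, mitosis taken 0.5 h after nocodazole release, G1/S directly after double thymidine block.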

| Sequence | solubility change mitosis (log2) (HeLa Kyoto [1]) | thermal stability score (HeLa Kyoto [2]; [5]) | thermal stability score (HeLa Kyoto [2]; cell cycle stage: mitosis) | solubility in G1/S (log2) (HeLa Kyoto [3]) | melting temperature (HeLa Kyoto [4]; cell cycle stage: G1/S) [°C] | melting temperature (HeLa Kyoto [4]; cell cycle stage: mitosis) [°C] |
| --- | --- | --- | --- | --- | --- | --- |
| MESGFTSKDTYLSHFNPRDYLEKYYKFGSRHSAESQILKHLLKNLFKIFCLDGVKGDLLIDIGSGPTIYQLLSACESFKEIVVTDYSDQNLQELEKWLKKEPEAFDWSPVVTYVCDLEGNRVKGPEKEEKLRQAVKQVLKCDVTQSQPLGAVPLPPADCVLSTLCLDAACPDLPTYCRALRNLGSLLKPGGFLVIMDALKSSYYMIGEQKFSSLPLGREAVEAAVKEAGYTIEWFEVISQSYSSTMANNEGLFSLVARKLSRPL [NNMT] | -0.0166 | 3.88 | 4.37 | 0.584 | 53.4 | 53.7 |
| MESGQPARRIAMAPLLEYERQLVLELLDTDGLVVCARGLGADRLLYHFLQLHCHPACLVLVLNTQPAEEEYFINQLKIEGVEHLPRRVTNEITSNSRYEVYTQGGVIFATSRILVVDFLTDRIPSDLITGILVYRAHRIIESCQEAFILRLFRQKNKRGFIKAFTDNAVAFDTGFCHVERVMRNLFVRKLYLWPRFHVAVNSFLEQHKPEVVEIHVSMTPTMLAIQTAILDILNACLKELKCHNPSLEVEDLSLENAIGKPFDKTIRHYLDPLWHQLGAKTKSLVQDLKILRTLLQYLSQYDCVTFLNLLESLRATEKAFGQNSGWLFLDSSTSMFINARARVYHLPDAKMSKKEKISEKMEIKEGEETKKELVLESNPKWEALTEVLKEIEAENKESEALGGPGQVLICASDDRTCSQLRDYITLGAEAFLLRLYRKTFEKDSKAEEVWMKFRKEDSSKRIRKSHKRPKDPQNKERASTKERTLKKKKRKLTLTQMVGKPEELEEEGDVEEGYRREISSSPESCPEEIKHEEFDVNLSSDAAFGILKEPLTIIHPLLGCSDPYALTRVLHEVEPRYVVLYDAELTFVRQLEIYRASRPGKPLRVYFLIYGGSTEEQRYLTALRKEKEAFEKLIREKASMVVPEEREGRDETNLDLVRGTASADVSTDTRKAGGQEQNGTQQSIVVDMREFRSELPSLIHRRGIDIEPVTLEVGDYILTPEMCVERKSISDLIGSLNNGRLYSQCISMSRYYKRPVLLIEFDPSKPFSLTSRGALFQEISSNDISSKLTLLTLHFPRLRILWCPSPHATAELFEELKQSKPQPDAATALAITADSETLPESEKYNPGPQDFLLKMPGVNAKNCRSLMHHVKNIAELAALSQDELTSILGNAANAKQLYDFIHTSFAEVVSKGKGKK [ERCC4] | -0.274 | 0.278 | 0.608 | -0.215 | 49.6 | 50.4 |
| MESMFSSPAEAALQRETGVPGLLTPLPDLDGVYELERVAGFVRDLGCERVALQFPDQLLGDAVAVAARLEETTGSKMFILGDTAYGSCCVDVLGAEQAGAQALIHFGPACLSPPARPLPVAFVLRQRSVALELCVKAFEAQNPDPKAPVVLLSEPACAHALEALATLLRPRYLDLLVSSPAFPQPVGSLSPEPMPLERFGRRFPLAPGRRLEEYGAFYVGGSKASPDPDLDPDLSRLLLGWAPGQPFSSCCPDTGKTQDEGARAGRLRARRRYLVERARDARVVGLLAGTLGVAQHREALAHLRNLTQAAGKRSYVLALGRPTPAKLANFPEVDVFVLLACPLGALAPQLSGSFFQPILAPCELEAACNPAWPPPGLAPHLTHYADLLPGSPFHVALPPPESELWETPDVSLITGDLRPPPAWKSSNDHGSLALTPRPQLELAESSPAASFLSSRSWQGLEPRLGQTPVTEAVSGRRGIAIAYEDEGSG [DPH2] | -0.0726 | -0.452 | -1.28 | 0.268 | 53.9 | 53.4 |
| MESNKDEAERCISIALKAIQSNQPDRALRFLEKAQRLYPTPRVRALIESLNQKPQTAGDQPPPTDTTHATHRKAGGTDAPSANGEAGGESTKGYTAEQVAAVKRVKQCKDYYEILGVSRGASDEDLKKAYRRLALKFHPDKNHAPGATEAFKAIGTAYAVLSNPEKRKQYDQFGDDKSQAARHGHGHGDFHRGFEADISPEDLFNMFFGGGFPSSNVHVYSNGRMRYTYQQRQDRRDNQGDGGLGVFVQLMPILILILVSALSQLMVSSPPYSLSPRPSVGHIHRRVTDHLGVVYYVGDTFSEEYTGSSLKTVERNVEDDYIANLRNNCWKEKQQKEGLLYRARYFGDTDMYHRAQKMGTPSCSRLSEVQASLHG [DNAJB12] | -0.00489 | 2.37 | 0.328 | 0.104 | 49.4 | 50.4 |
| MESSRGRPGPETDLLAVAEHQALVFGGGPGRTSSEPPAGLRVSGEEETENVGGANRHPRTSPKTSSCGVVHRPEREALENEPGPQGTLSGAGSRRGAPGAEHEPSLSSRHKNPAPPEGKPSSGRDCRRGGPGGGMDVEQQEEEDNDEEAAAGSRAGRSFSSRLQDSRSLDGLSEACGGAGSSGSAESGAGGGRRATISSPLELEGTVSRHGDLTHFVANNLQLKIRLSGAPPPPPSAPARPCPAPAPTPTPAIPPIDPEVLRDLERLSRELGGRVDRLLRGLGGAVQELTALSVGCIQTYRDAVDSLGEAVDMSIKGMYTLLARCEELERALQPVQGLARQVRDIRRTLEVLEALCK [C17ORF59] | -0.0139 | -2.61 | -1.39 | 0.166 | 53.5 | 53.8 |
| METLESELTCPICLELFEDPLLLPCAHSLCFNCAHRILVSHCATNESVESITAFQCPTCRHVITLSQRGLDGLKRNVTLQNIIDRFQKASVSGPNSPSETRRERAFDANTMTSAEKVLCQFCDQDPAQDAVKTCVTCEVSYCDECLKATHPNKKPFTGHRLIEPIPDSHIRGLMCLEHEDEKVNMYCVTDDQLICALCKLVGRHRDHQVAALSERYDKLKQNLESNLTNLIKRNTELETLLAKLIQTCQHVEVNASRQEAKLTEECDLLIEIIQQRRQIIGTKIKEGKVMRLRKLAQQIANCKQCIERSASLISQAEHSLKENDHARFLQTAKNITERVSMATASSQVLIPEINLNDTFDTFALDFSREKKLLECLDYLTAPNPPTIREELCTASYDTITVHWTSDDEFSVVSYELQYTIFTGQANVVSLCNSADSWMIVPNIKQNHYTVHGLQSGTKYIFMVKAINQAGSRSSEPGKLKTNSQPFKLDPKSAHRKLKVSHDNLTVERDESSSKKSHTPERFTSQGSYGVAGNVFIDSGRHYWEVVISGSTWYAIGLAYKSAPKHEWIGKNSASWALCRCNNNWVVRHNSKEIPIEPAPHLRRVGILLDYDNGSIAFYDALNSIHLYTFDVAFAQPVCPTFTVWNKCLTIITGLPIPDHLDCTEQLP [MID1] | -0.0991 | -0.257 | -0.0362 | -0.197 | 50.6 | 50.6 |
| METPSQRRATRSGAQASSTPLSPTRITRLQEKEDLQELNDRLAVYIDRVRSLETENAGLRLRITESEEVVSREVSGIKAAYEAELGDARKTLDSVAKERARLQLELSKVREEFKELKARNTKKEGDLIAAQARLKDLEALLNSKEAALSTALSEKRTLEGELHDLRGQVAKLEAALGEAKKQLQDEMLRRVDAENRLQTMKEELDFQKNIYSEELRETKRRHETRLVEIDNGKQREFESRLADALQELRAQHEDQVEQYKKELEKTYSAKLDNARQSAERNSNLVGAAHEELQQSRIRIDSLSAQLSQLQKQLAAKEAKLRDLEDSLARERDTSRRLLAEKEREMAEMRARMQQQLDEYQELLDIKLALDMEIHAYRKLLEGEEERLRLSPSPTSQRSRGRASSHSSQTQGGGSVTKKRKLESTESRSSFSQHARTSGRVAVEEVDEEGKFVRLRNKSNEDQSMGNWQIKRQNGDDPLLTYRFPPKFTLKAGQVVTIWAAGAGATHSPPTDLVWKAQNTWGCGNSLRTALINSTGEEVAMRKLVRSVTVVEDDEDEDGDDLLHHHHGSHCSSSGDPAEYNLRSRTVLCGTCGQPADKASASGSGAQVGGPISSGSSASSVTVTRSYRSVGGSGGGSFGDNLVTRSYLLGNSSPRTQSPQNCSIM [LMNA] | 1.64 | -9.6 | -5.85 | -1.05 | 54.8 | 52.9 |
| MEVAVEKAVAAAAAASAAASGGPSAAPSGENEAESRQGPDSERGGEAARLNLLDTCAVCHQNIQSRAPKLLPCLHSFCQRCLPAPQRYLMLPAPMLGSAETPPPVPAPGSPVSGSSPFATQVGVIRCPVCSQECAERHIIDNFFVKDTTEVPSSTVEKSNQVCTSCEDNAEANGFCVECVEWLCKTCIRAHQRVKFTKDHTVRQKEEVSPEAVGVTSQRPVFCPFHKKEQLKLYCETCDKLTCRDCQLLEHKEHRYQFIEEAFQNQKVIIDTLITKLMEKTKYIKFTGNQIQNRIIEVNQNQKQVEQDIKVAIFTLMVEINKKGKALLHQLESLAKDHRMKLMQQQQEVAGLSKQLEHVMHFSKWAVSSGSSTALLYSKRLITYRLRHLLRARCDASPVTNNTIQFHCDPSFWAQNIINLGSLVIEDKESQPQMPKQNPVVEQNSQPPSGLSSNQLSKFPTQISLAQLRLQHMQQQVMAQRQQVQRRPAPVGLPNPRMQGPIQQPSISHQQPPPRLINFQNHSPKPNGPVLPPHPQQLRYPPNQNIPRQAIKPNPLQMAFLAQQAIKQWQISSGQGTPSTTNSTSSTPSSPTITSAAGYDGKAFGSPMIDLSSPVGGSYNLPSLPDIDCSSTIMLDNIVRKDTNIDHGQPRPPSNRTVQSPNSSVPSPGLAGPVTMTSVHPPIRSPSASSVGSRGSSGSSSKPAGADSTHKVPVVMLEPIRIKQENSGPPENYDFPVVIVKQESDEESRPQNANYPRSILTSLLLNSSQSSTSEETVLRSDAPDSTGDQPGLHQDNSSNGKSEWLDPSQKSPLHVGETRKEDDPNEDWCAVCQNGGELLCCEKCPKVFHLSCHVPTLTNFPSGEWICTFCRDLSKPEVEYDCDAPSHNSEKKKTEGLVKLTPIDKRKCERLLLFLYCHEMSLAFQDPVPLTVPDYYKIIKNPMDLSTIKKRLQEDYSMYSKPEDFVADFRLIFQNCAEFNEPDSEVANAGIKLENYFEELLKNLYPEKRFPKPEFRNESEDNKFSDDSDDDFVQPRKKRLKSIEERQLLK [TRIM24] | -0.117 | 2.07 | 4.99 | -0.0643 | 48.8 | 50.2 |
| MEVKRLKVTELRSELQRRGLDSRGLKVDLAQRLQEALDAEMLEDEAGGGGAGPGGACKAEPRPVAASGGGPGGDEEEDEEEEEEDEEALLEDEDEEPPPAQALGQAAQPPPEPPEAAAMEAAAEPDASEKPAEATAGSGGVNGGEEQGLGKREEDEPEERSGDETPGSEVPGDKAAEEQGDDQDSEKSKPAGSDGERRGVKRQRDEKDEHGRAYYEFREEAYHSRSKSPLPPEEEAKDEEEDQTLVNLDTYTSDLHFQVSKDRYGGQPLFSEKFPTLWSGARSTYGVTKGKVCFEAKVTQNLPMKEGCTEVSLLRVGWSVDFSRPQLGEDEFSYGFDGRGLKAENGQFEEFGQTFGENDVIGCFANFETEEVELSFSKNGEDLGVAFWISKDSLADRALLPHVLCKNCVVELNFGQKEEPFFPPPEEFVFIHAVPVEERVRTAVPPKTIEECEVILMVGLPGSGKTQWALKYAKENPEKRYNVLGAETVLNQMRMKGLEEPEMDPKSRDLLVQQASQCLSKLVQIASRTKRNFILDQCNVYNSGQRRKLLLFKTFSRKVVVVVPNEEDWKKRLELRKEVEGDDVPESIMLEMKANFSLPEKCDYMDEVTYGELEKEEAQPIVTKYKEEARKLLPPSEKRTNRRNNRNKRNRQNRSRGQGYVGGQRRGYDNRAYGQQYWGQPGNRGGYRNFYDRYRGDYDRFYGRDYEYNRYRDYYRQYNRDWQSYYYHHPQDRDRYYRNYYGYQGYR [HNRNPUL2] | 0.258 | 0.965 | 3.42 | -0.462 | 49.2 | 50.1 |
